Assay results: patent US20260234290, “Antibodies to Stat3 Decoy Oligonucleotide” (The Regents of the University of California, published 2026)

Legend:
[1] = biological target: 4E4 Fab (UniProt P01764;A0A075B6I4 SEQ:1-116,SEQ:1-110); assay: BLI; 2 uM Fab; RT; described as weak binding; settings: myc tag; Ni-NTA purified from E. coli BL21(DE3) periplasm; label: biotin; cyclic 15-mer double-stranded decoy
Procedure: (§1) All buffers were filter sterilized with […] filters prior to preparing samples. Black 384 well microplates were used to set up BLI plates and streptavidin tips were purchased by Sartorius. Kinetic constants of Fabs were determined by Octet RED384 system with continuous shaking at 1000 rpm in RT. Prior to the experiment, biological tips (model name) were presoaked in buffer to allow for equilibration for 1 hour. Data were analyzed using 1:1 interaction model on the ForteBio data analysis software 12.0.

[2] = biological target: SP1-B3 Fab (UniProt A0A0B4J1U7;A0A087WSX0 SEQ:1-120,SEQ:1-115); assay: BLI; 2 uM Fab; CS3D on streptavidin tips; RT; RAPID-sorted clone; settings: myc tag; Ni-NTA purified from E. coli BL21(DE3) periplasm; label: biotin; cyclic 15-mer double-stranded decoy
Procedure: as §1

Chain of SP1-B3 Fab (A0A0B4J1U7 other isoform, or with tags, fused parts or gaps, chain 1 of 2): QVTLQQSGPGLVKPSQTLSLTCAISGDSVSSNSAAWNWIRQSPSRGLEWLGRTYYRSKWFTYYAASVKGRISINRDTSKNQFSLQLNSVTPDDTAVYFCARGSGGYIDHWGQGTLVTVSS
Chain of SP1-B3 Fab (A0A087WSX0 other isoform, or with tags, fused parts or gaps, chain 2 of 2): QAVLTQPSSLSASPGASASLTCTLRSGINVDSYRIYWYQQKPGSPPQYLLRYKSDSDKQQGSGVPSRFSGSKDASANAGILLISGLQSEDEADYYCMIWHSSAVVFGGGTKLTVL
Chain of 4E4 Fab (P01764 other isoform, or with tags, fused parts or gaps, chain 1 of 2): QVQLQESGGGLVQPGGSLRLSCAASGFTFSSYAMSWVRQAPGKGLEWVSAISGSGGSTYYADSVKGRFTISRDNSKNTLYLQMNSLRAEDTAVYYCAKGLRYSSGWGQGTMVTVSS
Chain of 4E4 Fab (A0A075B6I4 other isoform, or with tags, fused parts or gaps, chain 2 of 2): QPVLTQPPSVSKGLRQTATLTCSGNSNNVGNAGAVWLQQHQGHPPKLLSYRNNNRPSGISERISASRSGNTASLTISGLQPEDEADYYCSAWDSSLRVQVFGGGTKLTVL

B1: CS3D (cyclic STAT3 decoy) (dsDNA)
DNA 1: CATTTCCCGTAAATC
DNA 2: GATTTACGGGAAATG
koff [1]: 0.111 s⁻¹
koff [2]: 0.0211 s⁻¹
